Data from paper PMC11763338.

Target: recombinant human α-synuclein protein seeds (human) (UniProt P37840)

R18D (18-mer of D-arginine) (peptide) showed a percent inhibition of aggregation of α-syn monomer seeded by m2, cell-free ThT fluorescence at 24 h; R18D 0.05-0.25 μM pre-incubated with the seeds of 62.1% and a percent inhibition of intracellular α-syn aggregation in rat cortical neurons exposed to seeds (0.14 μM), HTRF aggregate assay at 48 h; R18D 0.0625-0.5 μM added 2 h after the seeds of 37.8%.
